Assay results: paper PMC9330781, “Isolated Variable Domains of an Antibody Can Assemble on Blood Coagulation Factor VIII into a Functional Fv-like Complex” (International Journal of Molecular Sciences, 2022)

B1: scFv iKM33-v1 (thrombin-cleavable variant of iKM33) (scFv, V domains shown)
VH: EVQLVESGGGVVQPGRSLRLSCVDSGLTFSSYGMHWVRQAPGAGLEWVAVISYDGNDKYYADSVKGRFAISRDNAKNTLYLQMNSLTIEDTAVYYCAKDLIESNIAEAFWGQGTLVTVSS
VL: DIQMTQSPSSLSASVGDTVTIACRASRDIRNDLAWYQQKPGKAPKLLIYATSRLQSGVPSRFSGSGSFTDFTLTINSLQPDDSATYYCLQDSDYPLTFGGGTKVDIK
notes: as the VH of m1; linker with a thrombin cleavage site made after the FVIII Arg740 site, 15 or 17 residues long; as the VL of m1; Differs from m1 only in the linker; also called intact scFv; source: Sf9 cells, baculovirus, purified from conditioned media (HisTrap Excel, Superdex 75)
B2: scFv iKM33-v2 (thrombin-cleavable variant of iKM33) (scFv, V domains shown)
VH: EVQLVESGGGVVQPGRSLRLSCVDSGLTFSSYGMHWVRQAPGAGLEWVAVISYDGNDKYYADSVKGRFAISRDNAKNTLYLQMNSLTIEDTAVYYCAKDLIESNIAEAFWGQGTLVTVSS
VL: DIQMTQSPSSLSASVGDTVTIACRASRDIRNDLAWYQQKPGKAPKLLIYATSRLQSGVPSRFSGSGSFTDFTLTINSLQPDDSATYYCLQDSDYPLTFGGGTKVDIK
notes: as the VH of m1; linker with a thrombin cleavage site made after the FVIII Arg740 site, 15 or 17 residues long; as the VL of m1; Differs from m1 only in the linker; also called non-cleaved scFv; source: Sf9 cells, baculovirus, purified from conditioned media (HisTrap Excel, Superdex 75)
B3: scFv iKM33-v3 (thrombin-cleavable variant of iKM33) (scFv, V domains shown)
VH: EVQLVESGGGVVQPGRSLRLSCVDSGLTFSSYGMHWVRQAPGAGLEWVAVISYDGNDKYYADSVKGRFAISRDNAKNTLYLQMNSLTIEDTAVYYCAKDLIESNIAEAFWGQGTLVTVSS
VL: DIQMTQSPSSLSASVGDTVTIACRASRDIRNDLAWYQQKPGKAPKLLIYATSRLQSGVPSRFSGSGSFTDFTLTINSLQPDDSATYYCLQDSDYPLTFGGGTKVDIK
notes: as the VH of m1; linker with a thrombin cleavage site made after the FVIII Arg372 site; as the VL of m1; Differs from m1 only in the linker; source: Sf9 cells, baculovirus, purified from conditioned media (HisTrap Excel, Superdex 75)
B4: Recombinant B-domain deleted FVIII (BDD) (natural protein, human, UniProt P00451 20-2351, looked up)
chain 1: ATRRYYLGAVELSWDYMQSDLGELPVDARFPPRVPKSFPFNTSVVYKKTLFVEFTDHLFNIAKPRPPWMGLLGPTIQAEVYDTVVITLKNMASHPVSLHAVGVSYWKASEGAEYDDQTSQREKEDDKVFPGGSHTYVWQVLKENGPMASDPLCLTYSYLSHVDLVKDLNSGLIGALLVCREGSLAKEKTQTLHKFILLFAVFDEGKSWHSETKNSLMQDRDAASARAWPKMHTVNGYVNRSLPGLIGCHRKSVYWHVIGMGTTPEVHSIFLEGHTFLVRNHRQASLEISPITFLTAQTLLMDLGQFLLFCHISSHQHDGMEAYVKVDSCPEEPQLRMKNNEEAEDYDDDLTDSEMDVVRFDDDNSPSFIQIRSVAKKHPKTWVHYIAAEEEDWDYAPLVLAPDDRSYKSQYLNNGPQRIGRKYKKVRFMAYTDETFKTREAIQHESGILGPLLYGEVGDTLLIIFKNQASRPYNIYPHGITDVRPLYSRRLPKGVKHLKDFPILPGEIFKYKWTVTVEDGPTKSDPRCLTRYYSSFVNMERDLASGLIGPLLICYKESVDQRGNQIMSDKRNVILFSVFDENRSWYLTENIQRFLPNPAGVQLEDPEFQASNIMHSINGYVFDSLQLSVCLHEVAYWYILSIGAQTDFLSVFFSGYTFKHKMVYEDTLTLFPFSGETVFMSMENPGLWILGCHNSDFRNRGMTALLKVSSCDKNTGDYYEDSYEDISAYLLSKNNAIEPR
chain 2: EITRTTLQSDQEEIDYDDTISVEMKKEDFDIYDEDENQSPRSFQKKTRHYFIAAVERLWDYGMSSSPHVLRNRAQSGSVPQFKKVVFQEFTDGSFTQPLYRGELNEHLGLLGPYIRAEVEDNIMVTFRNQASRPYSFYSSLISYEEDQRQGAEPRKNFVKPNETKTYFWKVQHHMAPTKDEFDCKAWAYFSDVDLEKDVHSGLIGPLLVCHTNTLNPAHGRQVTVQEFALFFTIFDETKSWYFTENMERNCRAPCNIQMEDPTFKENYRFHAINGYIMDTLPGLVMAQDQRIRWYLLSMGSNENIHSIHFSGHVFTVRKKEEYKMALYNLYPGVFETVEMLPSKAGIWRVECLIGEHLHAGMSTLFLVYSNKCQTPLGMASGHIRDFQITASGQYGQWAPKLARLHYSGSINAWSTKEPFSWIKVDLLAPMIIHGIKTQGARQKFSSLYISQFIIMYSLDGKKWQTYRGNSTGTLMVFFGNVDSSGIKHNIFNPPIIARYIRLHPTHYSIRSTLRMELMGCDLNSCSMPLGMESKAISDAQITASSYFTNMFATWSPSKARLHLQGRSNAWRPQVNNPKEWLQVDFQKTMKVTGVTTQGVKSLLTSMYVKEFLISSSQDGHQWTLFFQNGKVKVFQGNQDSFTPVVNSLDPPLLTRYLRIHPQSWVHQIALRMEVLGCEAQDLY
notes: coagulation factor VIII, human, B-domain deleted; also called BDD FVIII; source: bought: FVIII pharmaceutical product, ASD Healthcare, AmerisourceBergen

Experiments:
Settings in all cases: both partners purified
[1] = target: B4; assay: pull-down; FVIII (BDD, ~2 µg) incubated with the scFv or its fragments (1- to 5-fold molar excess) in HBS-P/Ca buffer for 1 h at room temperature, captured on VIIISelect (FVIII-affinity) resin, washed, eluted, SDS-PAGE with silver staining
[2] = target: T1, Recombinant blood coagulation factor VIII (human); assay: SPR; each scFv variant covalently immobilised (amine coupling, CM5, 250-350 RU); FVIII injected at 3.125, 12.5, 50 and 200 nM; 10 mM HEPES, 150 mM NaCl, 5 mM CaCl2, 0.005% Polysorbate-20; 25 °C; 1:1 (Langmuir) binding model; Biacore T200
T1 construct: coagulation factor VIII, human, heavy chain with the domain structure A1-A2-B; coagulation factor VIII, human, light chain with the domain structure A3-C1-C2; Written here as one chain entry with two parts would be wrong: see the two pieces as heavy chain and light chain of the heterodimer; also called FVIII; source: bought: FVIII pharmaceutical product, ASD Healthcare, AmerisourceBergen

[3] = target: T2, Isolated VH subunit of thrombin-cleaved iKM33-v1; assay: pull-down; FVIII (BDD, ~2 µg) incubated with the scFv or its fragments (1- to 5-fold molar excess) in HBS-P/Ca buffer for 1 h at room temperature, captured on VIIISelect (FVIII-affinity) resin, washed, eluted, SDS-PAGE with silver staining
T2 construct: as the VH of m2; the stretch of the linker of m2 that stays on VH after thrombin cleavage; About 13 kDa; source: thrombin cleavage of the purified scFv (Sf9); supernatant after Ni-NTA agarose, buffer exchanged and concentrated

Row | Binder | binding result [1] | binding result [2] | binding result [3]
1 | B1 | binds | binds | –
2 | B2 | – | binds | –
3 | B3 | – | binds | –
4 | B4 | – | – | binds
